# The supplement of paper PMC10266784
# B1: library; numbered along this chain (parent)
# chain: MAAAAAAAAEQQSSNGPVKKSMREKAVERRSVNKEHNSNFKAGYIPIDEDRLHKTGLRGRKGNLAICVIILLFILAVINLIITLVIWAVIRIGPNGCDSMEFHESGLLRFKQVSDMGVIHPLYKSTVGGRRNENLVITGNNQPIVFQQGTTKLSVENNKTSITSDIGMQFFDPRTQNILFSTDYETHEFHLPSGVKSLNVQKASTERITSNATSDLNIKVDGRAIVRGNEGVFIMGKTIEFHMGGNMELKAENSIILNGSVMVSTTRLPSSSSGDQLGSGDWVRYKLCMCADGTLFKVQVTSQNMGCQISDNPCGNTH
# Variants of: B1
# Test: SGCB cell-surface expression functional score (HA stain, bin4 vs bin1, normalised to synonymous) (log10 ratio); higher = more cell-surface SGCB (functional)
# Outline: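 Using lentivirus at MOI <0.1, HA-tagged, YFP-fused human beta-sarcoglycan codon-saturation libraries were put into HEK293 cells with stable alpha-, gamma- and delta-sarcoglycan expression, in duplicate transductions. YFP-positive cells were collected by sorting 72 hours later, grown 5–7 days, stained on ice with Alexa Fluor 647 anti-HA, fixed, sorted into four 5% intensity bins and amplicon-sequenced. The functional score takes the median, across codons and transductions, of the log ratio of highest-bin to lowest-bin variant frequency. Within each section, synonymous variants were scaled to mean 0, SD 0.5.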
row,Variant,SGCB cell-surface expression functional score (log10)
1,MAAAAAAAAEQQSSNGPVKKSMREKAVERRSVNKEHNSNFKAGYIPIDEDRLHKTGLRGRKGNLAICVIILLFILAVINLIITLVIWAVIRIGPNGCDSMEFHESGLLRFKQVSDMGVIHPLYKSTVGGRRNENLVITGNNQPIVFQQGTTKHSVENNKTSITSDIGMQFFDPRTQNILFSTDYETHEFHLPSGVKSLNVQKASTERITSNATSDLNIKVDGRAIVRGNEGVFIMGKTIEFHMGGNMELKAENSIILNGSVMVSTTRLPSSSSGDQLGSGDWVRYKLCMCADGTLFKVQVTSQNMGCQISDNPCGNTH [L153H],-1.03
2,MAAAAAAAAEQQSSNGPVKKSMREKAVERRSVNKEHNSNFKAGYIPIDEDRLHKTGLRGRKGNLAICVIILLFILAVINLIITLVIWAVIRIGPNGCDSMEFHESGLLRFKQVSDMGVIHPLYKSTVGGRRNENLVITGNNQPIVFQQGTTKGSVENNKTSITSDIGMQFFDPRTQNILFSTDYETHEFHLPSGVKSLNVQKASTERITSNATSDLNIKVDGRAIVRGNEGVFIMGKTIEFHMGGNMELKAENSIILNGSVMVSTTRLPSSSSGDQLGSGDWVRYKLCMCADGTLFKVQVTSQNMGCQISDNPCGNTH [L153G],-0.65
3,MAAAAAAAAEQQSSNGPVKKSMREKAVERRSVNKEHNSNFKAGYIPIDEDRLHKTGLRGRKGNLAICVIILLFILAVINLIITLVIWAVIRIGPNGCDSMEFHESGLLRFKQVSDMGVIHPLYKSTVGGRRNENLVITGNNQPIVFQQGTTKPSVENNKTSITSDIGMQFFDPRTQNILFSTDYETHEFHLPSGVKSLNVQKASTERITSNATSDLNIKVDGRAIVRGNEGVFIMGKTIEFHMGGNMELKAENSIILNGSVMVSTTRLPSSSSGDQLGSGDWVRYKLCMCADGTLFKVQVTSQNMGCQISDNPCGNTH [L153P],-1.07
4,MAAAAAAAAEQQSSNGPVKKSMREKAVERRSVNKEHNSNFKAGYIPIDEDRLHKTGLRGRKGNLAICVIILLFILAVINLIITLVIWAVIRIGPNGCDSMEFHESGLLRFKQVSDMGVIHPLYKSTVGGRRNENLVITGNNQPIVFQQGTTKNSVENNKTSITSDIGMQFFDPRTQNILFSTDYETHEFHLPSGVKSLNVQKASTERITSNATSDLNIKVDGRAIVRGNEGVFIMGKTIEFHMGGNMELKAENSIILNGSVMVSTTRLPSSSSGDQLGSGDWVRYKLCMCADGTLFKVQVTSQNMGCQISDNPCGNTH [L153N],-1.69
5,MAAAAAAAAEQQSSNGPVKKSMREKAVERRSVNKEHNSNFKAGYIPIDEDRLHKTGLRGRKGNLAICVIILLFILAVINLIITLVIWAVIRIGPNGCDSMEFHESGLLRFKQVSDMGVIHPLYKSTVGGRRNENLVITGNNQPIVFQQGTTKKSVENNKTSITSDIGMQFFDPRTQNILFSTDYETHEFHLPSGVKSLNVQKASTERITSNATSDLNIKVDGRAIVRGNEGVFIMGKTIEFHMGGNMELKAENSIILNGSVMVSTTRLPSSSSGDQLGSGDWVRYKLCMCADGTLFKVQVTSQNMGCQISDNPCGNTH [L153K],-1.12
6,MAAAAAAAAEQQSSNGPVKKSMREKAVERRSVNKEHNSNFKAGYIPIDEDRLHKTGLRGRKGNLAICVIILLFILAVINLIITLVIWAVIRIGPNGCDSMEFHESGLLRFKQVSDMGVIHPLYKSTVGGRRNENLVITGNNQPIVFQQGTTKQSVENNKTSITSDIGMQFFDPRTQNILFSTDYETHEFHLPSGVKSLNVQKASTERITSNATSDLNIKVDGRAIVRGNEGVFIMGKTIEFHMGGNMELKAENSIILNGSVMVSTTRLPSSSSGDQLGSGDWVRYKLCMCADGTLFKVQVTSQNMGCQISDNPCGNTH [L153Q],-1.65
7,MAAAAAAAAEQQSSNGPVKKSMREKAVERRSVNKEHNSNFKAGYIPIDEDRLHKTGLRGRKGNLAICVIILLFILAVINLIITLVIWAVIRIGPNGCDSMEFHESGLLRFKQVSDMGVIHPLYKSTVGGRRNENLVITGNNQPIVFQQGTTKSSVENNKTSITSDIGMQFFDPRTQNILFSTDYETHEFHLPSGVKSLNVQKASTERITSNATSDLNIKVDGRAIVRGNEGVFIMGKTIEFHMGGNMELKAENSIILNGSVMVSTTRLPSSSSGDQLGSGDWVRYKLCMCADGTLFKVQVTSQNMGCQISDNPCGNTH [L153S],-1.03
8,MAAAAAAAAEQQSSNGPVKKSMREKAVERRSVNKEHNSNFKAGYIPIDEDRLHKTGLRGRKGNLAICVIILLFILAVINLIITLVIWAVIRIGPNGCDSMEFHESGLLRFKQVSDMGVIHPLYKSTVGGRRNENLVITGNNQPIVFQQGTTKRSVENNKTSITSDIGMQFFDPRTQNILFSTDYETHEFHLPSGVKSLNVQKASTERITSNATSDLNIKVDGRAIVRGNEGVFIMGKTIEFHMGGNMELKAENSIILNGSVMVSTTRLPSSSSGDQLGSGDWVRYKLCMCADGTLFKVQVTSQNMGCQISDNPCGNTH [L153R],-1.23
9,MAAAAAAAAEQQSSNGPVKKSMREKAVERRSVNKEHNSNFKAGYIPIDEDRLHKTGLRGRKGNLAICVIILLFILAVINLIITLVIWAVIRIGPNGCDSMEFHESGLLRFKQVSDMGVIHPLYKSTVGGRRNENLVITGNNQPIVFQQGTTKMSVENNKTSITSDIGMQFFDPRTQNILFSTDYETHEFHLPSGVKSLNVQKASTERITSNATSDLNIKVDGRAIVRGNEGVFIMGKTIEFHMGGNMELKAENSIILNGSVMVSTTRLPSSSSGDQLGSGDWVRYKLCMCADGTLFKVQVTSQNMGCQISDNPCGNTH [L153M],0.18
10,MAAAAAAAAEQQSSNGPVKKSMREKAVERRSVNKEHNSNFKAGYIPIDEDRLHKTGLRGRKGNLAICVIILLFILAVINLIITLVIWAVIRIGPNGCDSMEFHESGLLRFKQVSDMGVIHPLYKSTVGGRRNENLVITGNNQPIVFQQGTTKISVENNKTSITSDIGMQFFDPRTQNILFSTDYETHEFHLPSGVKSLNVQKASTERITSNATSDLNIKVDGRAIVRGNEGVFIMGKTIEFHMGGNMELKAENSIILNGSVMVSTTRLPSSSSGDQLGSGDWVRYKLCMCADGTLFKVQVTSQNMGCQISDNPCGNTH [L153I],-0.17
